The text below walks through data of patent publication US20080124320A1, “Use of HMGB fragments as anti-inflammatory agents” (priority 2002, published 2008).

The target in series [1] is RAGE on murine macrophage-like RAW 264.7 cells (mouse (murine RAW 264.7 cells)) (UniProt Q62151). The experiment in a line: cell-based or functional assay.
Series [2] deals with RAW 264.7 cells. Briefly: TNF release from RAW 264.7 cells, L929 cytotoxicity bioassay. Type of series: cell-based, murine. The method, then:
(§1) Murine macrophage-like RAW 264.7 cells (American Type Culture Collection, Rockville, Md.) were cultured in RPMI 1640 medium (Life Technologies, Grand Island N.Y.) supplemented with 10% fetal bovine serum (Gemini, Catabasas, Calif.), penicillin and streptomycin (Life Technologies) and were used at 90% confluence in serum-free Opti-MEM I medium (Life Technologies, Grand Island, N.Y.). […] Polymyxin B was not used in experiments of synthetic peptide studies.
TNF release was measured by a standard murine fibroblast L929 (ATCC, American Type Culture Collection, Rockville, Md.) cytotoxicity bioassay (Bianchi et al., Journal of Experimental Medicine 183:927-936, 1996) with the minimum detectable concentration of 30 pg/ml. […]
The effect of the mutants on TNF release from Murine macrophage-like RAW 264.7 cells (ATCC) was carried out as follows. […] Conditioned supernatants (containing TNF which had been released from the cells) were collected and TNF released from the cells was measured by a standard murine fibroblast L929 (ATCC) cytotoxicity bioassay (Bianchi et al., supra) with the minimum detectable concentration of 30 pg/ml. […]
To further examine the effect of HMGB1 B box on cytokine production, varying amounts of HMGB1 B box were evaluated for the effects on TNF, IL-1, and IL-6 production in murine macrophage-like RAW 264.7 cells. […]

Series [3] deals with Recombinant full length human HMGB1 (wild type HMGB1) (human). The experiment in a line: cell-based or functional assay.
Series [4] has as its system RAW 264.7 cells. The experiment in a line: IL-6 release from RAW 264.7 cells, ELISA. As to conditions: B box 0-10 μg/ml, 8 hours (FIG. 2C). Type of series: cell-based, murine. How it is done: as §1
To further examine the effect of HMGB1 B box on cytokine production, varying amounts of HMGB1 B box were evaluated for the effects on TNF, IL-1, and IL-6 production in murine macrophage-like RAW 264.7 cells. Conditioned media were harvested and measured for TNF, IL-1β and IL-6 levels. TNF levels were measured as described herein, and IL-1β and IL-6 levels were measured using the mouse IL-1β and IL-6 enzyme-linked immunosorbent assay (ELISA) kits (R&D System Inc., Minneapolis, Minn.) and N>5 for all experiments.
(In general: An ELISA detects its analyte on a solid surface through an enzyme-linked reagent.)

For another series, the system named is C3H/HeJ mice. Briefly: Lethality and histology in C3H/HeJ mice. The class given is in vivo, mouse. As to conditions: 8 hours after administration.
The test system of series [5] is NF-κB-dependent ELAM promoter. The experiment in a line: NF-κB dependent ELAM promoter luciferase reporter in RAW 264.7 macrophages. As to conditions: HMGB1 100 ng/ml or B box 10 μg/ml, 5 hours; decreased with MyD 88 dominant negative (FIG. 11B). The class given is cell-based, murine. The method, then:
To examine the effects of HMGB1 or HMGB1 B box on the NF KB dependent ELAM promoter, the following experiment was carried out. RAW 264.7 macrophages were transiently co transfected with an expression plasmid encoding a murine MyD 88 dominant negative (DN) mutant (corresponding to amino acids 146 296), or empty vector, plus a luciferase reporter plasmid under the control of the NF κB dependent ELAM promoter, as described by Means et al. (J. Immunol. 166:4074 4082, 2001). A portion of the cells were then stimulated with full length HMGB1 (100 ng/ml), or purified HMGB1 B box (10 μg/ml), for 5 hours. Cells were then harvested and luciferase activity was measured, using standard methods. All transfections were performed in triplicate, repeated at least three times, and a single representative experiment is shown in FIG. 11B.
Background: Reporter assays use an easily measured gene product as a stand-in for the process of interest.

Series [6] relates to Balb/c mice subjected to CLP. Briefly: Cecal ligation and puncture (CLP) sepsis, survival of Balb/c mice. The class given is in vivo, mouse. The conditions noted are these: i.p. twice daily for 3 days beginning 24 hours after CLP. How it is done: Cecal ligation and puncture (CLP) was performed as described previously (Fink and Heard, J. Surg. Res. 49:186-196, 1990; Wichmann et al., Crit. Care Med. 26:2078-2086, 1998; and Remick et al., Shock 4:89-95, 1995). Briefly, Balb/c mice were anesthetized with 75 mg/kg ketamine (Fort Dodge, Fort Dodge, Iowa) and 20 mg/kg of xylazine (Bohringer Ingelheim, St. Joseph, Mo.) intramuscularly. A midline incision was performed, and the cecum was isolated. A 6-0 prolene suture ligature was placed at a level 5.0 mm from the cecal tip away from the ileocecal valve.
The ligated cecal stump was then punctured once with a 22-gauge needle, without direct extrusion of stool. The cecum was then placed back into its normal intra-abdominal position. […] Mortality was recorded for up to 1 week after the procedure; survivors were followed for 2 weeks to ensure no late mortalities had occurred.
To determine whether the HMGB1 A box can inhibit the lethality of HMGB1 during sepsis, mice were subjected to cecal perforation and treated by administration of A box beginning 24 hours after the onset of sepsis. […] Survival was monitored twice daily for up to 2 weeks to ensure no late death occurred. […]
Passive immunization of critically ill septic mice with anti-HMGB1 antibodies was also assessed. […] Survival was monitored for 2 weeks. […]

RAGE on murine macrophage-like RAW 264.7 cells (mouse (murine RAW 264.7 cells)), sequence (Q62151 23-402): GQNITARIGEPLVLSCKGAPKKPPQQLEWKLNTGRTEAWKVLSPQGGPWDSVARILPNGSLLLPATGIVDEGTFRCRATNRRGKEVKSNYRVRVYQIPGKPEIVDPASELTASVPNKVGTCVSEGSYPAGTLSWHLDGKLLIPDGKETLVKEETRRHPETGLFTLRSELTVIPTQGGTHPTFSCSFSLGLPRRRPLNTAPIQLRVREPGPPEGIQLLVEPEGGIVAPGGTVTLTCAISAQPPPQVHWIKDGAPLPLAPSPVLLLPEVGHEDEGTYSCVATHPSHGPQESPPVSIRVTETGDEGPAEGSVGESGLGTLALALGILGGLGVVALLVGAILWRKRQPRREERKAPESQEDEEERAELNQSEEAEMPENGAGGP

In series [1], “Recombinant full length human HMGB1 (wild type HMGB1) (from UniProt A9RA84 1-215) (ligand)” gave a decrease of HMG-1 signaling (TNF release from RAW 264.7 cells) by anti-RAGE antibody of 40%.

Take “fkdpnapkrlpsafflfcse (FKDPNAPKRLPSAFFLFCSE; listed as Homo sapiens) [1-20]”: the “TNF release by synthetic B box peptide fragments” value in the series with RAW 264.7 cells [2] (synthetic peptide 10 μg/ml, 10 hours, no polymyxin B (FIG. 3), listed as 1-20-mer) is given as “less potent than either the full length synthetic B box (1-74-mer), or full length HMGB1”. On to “HMGB1 A box protein (Amino terminus + A box mutant of human HMGB1) (from UniProt A9RA84 1-85)”, for which the inhibition of HMGB1 induced TNF release from RAW 264.7 cells (L929 cytotoxicity assay) in series [3] worked out at 7.5 µg/mL.

B1: B box: Recombinant human HMGB1 B box mutant polypeptide, SEQ ID NO:20, expressed with a GST gene fusion system in E. coli (protein, listed as Homo sapiens)
chain: FKDPNAPKRLPSAFFLFCSEYRPKIKGEHPGLSIGDVAKKLGEMWNNTAADDKQPYEKKAAKLKEKYEKDIAAY
modifications: GST fusion
As to B1, the “TNF protein expression over time versus medium only” value in the series with RAW 264.7 cells [2] (10 μg/ml, 0-48 hours (FIGS. 2E, 2F)) is on record as “stimulated TNF protein expression”. For the same molecule, the “IL-6 release, dose response” value in the series with RAW 264.7 cells [4] is recorded as “increased with increased amounts of B box”. In the series with C3H/HeJ mice, the histology of heart result was “evidence of ischemia with loss of cross striation associated with amorphous pink cytoplasm in myocardial fibers”; the histology of liver result is “mild acute inflammatory responses, with some hepatocyte dropout and apoptosis, and occasional polymorphonuclear leukocytes”.

B2: HMGB1: Recombinant full length human HMGB1, SEQ ID NO:18; recombinant rat HMGB1 used in some experiments (protein, listed as Homo sapiens)
chain: MGKGDPKKPTGKMSSYAFFVQTCREEHKKKHPDASVNFSEFSKKCSERWKTMSAKEKGKFEDMAKADKARYEREMKTYIPPKGETKKKFKDPNAPKRLPSAFFLFCSEYRPKIKGEHPGLSIGDVAKKLGEMWNNTAADDKQPYEKKAAKLKEKYEKDIAAYRAKGKPDAAKKGVVKAEKSKKKKEEEEDEEDEEDEEEEEDEEDEEDEEEDDDDE
Take B2: in series [5], the “luciferase activity (NF-κB dependent ELAM promoter)” value is listed as “stimulated luciferase activity”.

B3: A box: Recombinant human HMGB1 amino terminus + A box mutant, SEQ ID NO:21 (A box SEQ ID NO:22), GST fusion system (protein, listed as Homo sapiens)
chain: MGKGDPKKPTGKMSSYAFFVQTCREEHKKKHPDASVNFSEFSKKCSERWKTMSAKEKGKFEDMAKADKARYEREMKTYIPPKGET
modifications: GST fusion
Turning to B3, the “clinical condition of animals” value in series [6] (60 μg/mouse) was “most died”; in series [6] (600 μg/mouse) it was “significantly more alert, active, and to resume feeding behavior”.
